Experimental data as given in FireProtDB (doi:10.1016/j.jmb.2007.09.088).

Sequence of Chitinase A1 L578A, P20533 (P20533 whole entry L578A): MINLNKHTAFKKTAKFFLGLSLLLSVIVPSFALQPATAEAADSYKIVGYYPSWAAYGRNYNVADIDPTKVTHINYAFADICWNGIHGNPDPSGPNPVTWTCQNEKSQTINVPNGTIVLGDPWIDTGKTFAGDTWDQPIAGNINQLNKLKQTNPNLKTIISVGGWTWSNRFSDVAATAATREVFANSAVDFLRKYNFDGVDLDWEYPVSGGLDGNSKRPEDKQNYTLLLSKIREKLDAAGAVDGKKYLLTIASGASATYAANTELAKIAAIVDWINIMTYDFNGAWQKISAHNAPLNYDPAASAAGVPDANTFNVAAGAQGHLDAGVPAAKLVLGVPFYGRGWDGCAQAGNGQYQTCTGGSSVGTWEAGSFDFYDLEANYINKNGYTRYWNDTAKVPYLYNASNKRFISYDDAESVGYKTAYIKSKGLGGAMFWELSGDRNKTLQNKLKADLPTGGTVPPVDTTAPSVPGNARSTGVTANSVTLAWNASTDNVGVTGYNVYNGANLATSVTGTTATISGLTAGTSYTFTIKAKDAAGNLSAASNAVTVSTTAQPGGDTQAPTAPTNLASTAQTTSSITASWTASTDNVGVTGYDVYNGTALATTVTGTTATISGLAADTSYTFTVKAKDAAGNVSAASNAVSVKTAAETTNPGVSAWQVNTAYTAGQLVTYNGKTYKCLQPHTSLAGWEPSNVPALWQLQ
Sequence of Chitinase A1 S637A, P20533 (P20533 whole entry S637A): as the sequence (P20533 whole entry L578A) above, with A578L, S637A counted along it
Sequence of Chitinase A1 Y592F, P20533 (P20533 whole entry Y592F): as the sequence (P20533 whole entry L578A) above, with A578L, Y592F counted along it
Sequence of Chitinase A1 V589A, P20533 (P20533 whole entry V589A): as the sequence (P20533 whole entry L578A) above, with A578L, V589A counted along it
Sequence of Chitinase A1 Y620F, P20533 (P20533 whole entry Y620F): as the sequence (P20533 whole entry L578A) above, with A578L, Y620F counted along it
Sequence of Chitinase A1 L614A, P20533 (P20533 whole entry L614A): as the sequence (P20533 whole entry L578A) above, with A578L, L614A counted along it
Sequence of Chitinase A1 N596A, P20533 (P20533 whole entry N596A): as the sequence (P20533 whole entry L578A) above, with A578L, N596A counted along it
Sequence of Chitinase A1 V640A, P20533 (P20533 whole entry V640A): as the sequence (P20533 whole entry L578A) above, with A578L, V640A counted along it
Sequence of Chitinase A1 Y620L, P20533 (P20533 whole entry Y620L): as the sequence (P20533 whole entry L578A) above, with A578L, Y620L counted along it
Sequence of Chitinase A1 I611A, P20533 (P20533 whole entry I611A): as the sequence (P20533 whole entry L578A) above, with A578L, I611A counted along it
Sequence of Chitinase A1 S568A, P20533 (P20533 whole entry S568A): as the sequence (P20533 whole entry L578A) above, with S568A, A578L counted along it
Sequence of Chitinase A1 L566A, P20533 (P20533 whole entry L566A): as the sequence (P20533 whole entry L578A) above, with L566A, A578L counted along it
Sequence of Chitinase A1 A626G, P20533 (P20533 whole entry A626G): as the sequence (P20533 whole entry L578A) above, with A578L, A626G counted along it
Sequence of Chitinase A1 T602A, P20533 (P20533 whole entry T602A): as the sequence (P20533 whole entry L578A) above, with A578L, T602A counted along it
Sequence of Chitinase A1 I576A, P20533 (P20533 whole entry I576A): as the sequence (P20533 whole entry L578A) above, with I576A, A578L counted along it
Sequence of Chitinase A1 F622L, P20533 (P20533 whole entry F622L): as the sequence (P20533 whole entry L578A) above, with A578L, F622L counted along it
Sequence of Chitinase A1 A609G, P20533 (P20533 whole entry A609G): as the sequence (P20533 whole entry L578A) above, with A578L, A609G counted along it
Sequence of Chitinase A1 V604A, P20533 (P20533 whole entry V604A): as the sequence (P20533 whole entry L578A) above, with A578L, V604A counted along it
Sequence of Chitinase A1 Y592L, P20533 (P20533 whole entry Y592L): as the sequence (P20533 whole entry L578A) above, with A578L, Y592L counted along it
Sequence of Chitinase A1 V624A, P20533 (P20533 whole entry V624A): as the sequence (P20533 whole entry L578A) above, with A578L, V624A counted along it
Sequence of Chitinase A1 V594A, P20533 (P20533 whole entry V594A): as the sequence (P20533 whole entry L578A) above, with A578L, V594A counted along it
Sequence of Chitinase A1 V642A, P20533 (P20533 whole entry V642A): as the sequence (P20533 whole entry L578A) above, with A578L, V642A counted along it

Conditions: Niallia circulans; pH 5; 25 °C; Urea; Fluorescence; Sodium acetate 50mM; transition: 2; reversible: yes; structure 1K85
In the case of Chitinase A1 A609G, P20533, the “ddG of mutation (higher = less stable)” value is reported as 2.33 kcal/mol, the denaturant m value is reported as 1.18 kcal/mol/M and the “denaturant midpoint (higher = more stable)” value (from here on “denaturant midpoint”) is reported as 4.18 M. The unfolding free energy was 4.37 kcal/mol.
With Chitinase A1 A626G, P20533 the “ddG of mutation (higher = less stable)” value was 1.88 kcal/mol, the denaturant m value was 1.22 kcal/mol/M and the “denaturant midpoint” value was 4.57 M. For the same substance, the unfolding free energy was 4.82 kcal/mol.
For Chitinase A1 F622L, P20533, the “ddG of mutation (higher = less stable)” value was 2.5 kcal/mol, the denaturant m value was 1.08 kcal/mol/M and the “denaturant midpoint” value was 4.03 M. The unfolding free energy was 4.2 kcal/mol.
In the case of Chitinase A1 I576A, P20533, the “ddG of mutation (higher = less stable)” value is reported as 3.11 kcal/mol, the denaturant m value is reported as 1.15 kcal/mol/M and the “denaturant midpoint” value is reported as 3.5 M. It also gave an unfolding free energy of 3.59 kcal/mol.
With Chitinase A1 I611A, P20533 the “ddG of mutation (higher = less stable)” value was 3.63 kcal/mol, the denaturant m value was 1.13 kcal/mol/M and the “denaturant midpoint” value was 3.05 M. It also gave an unfolding free energy of 3.07 kcal/mol.
In the case of Chitinase A1 L566A, P20533, the “ddG of mutation (higher = less stable)” value is reported as 2.52 kcal/mol, the denaturant m value is reported as 1.19 kcal/mol/M and the “denaturant midpoint” value is reported as 4.01 M. It also gave an unfolding free energy of 4.18 kcal/mol.
With Chitinase A1 L578A, P20533 the “ddG of mutation (higher = less stable)” value was 5.54 kcal/mol, the denaturant m value was 1.16 kcal/mol/M and the “denaturant midpoint” value was 1.39 M. The unfolding free energy was 1.16 kcal/mol.
For Chitinase A1 L614A, P20533, the “ddG of mutation (higher = less stable)” value was 5.26 kcal/mol, the denaturant m value was 1.13 kcal/mol/M and the “denaturant midpoint” value was 1.63 M. It also gave an unfolding free energy of 1.44 kcal/mol.
In the case of Chitinase A1 N596A, P20533, the “ddG of mutation (higher = less stable)” value is reported as 1 kcal/mol, the denaturant m value is reported as 0.99 kcal/mol/M and the “denaturant midpoint” value is reported as 5.33 M. It also gave an unfolding free energy of 5.7 kcal/mol.
In the case of Chitinase A1 S568A, P20533, the “ddG of mutation (higher = less stable)” value is reported as -0.1 kcal/mol, the denaturant m value is reported as 1 kcal/mol/M and the “denaturant midpoint” value is reported as 6.29 M. For the same substance, the unfolding free energy was 6.8 kcal/mol.
With Chitinase A1 S637A, P20533 the “ddG of mutation (higher = less stable)” value was 1.42 kcal/mol, the denaturant m value was 1.13 kcal/mol/M and the “denaturant midpoint” value was 4.97 M. The unfolding free energy was 5.28 kcal/mol.
With Chitinase A1 T602A, P20533 the “ddG of mutation (higher = less stable)” value was -1.49 kcal/mol, the denaturant m value was 0.89 kcal/mol/M and the “denaturant midpoint” value was 7.49 M. For the same substance, the unfolding free energy was 8.19 kcal/mol.
With Chitinase A1 V589A, P20533 the “ddG of mutation (higher = less stable)” value was 1.77 kcal/mol, the denaturant m value was 1.16 kcal/mol/M and the “denaturant midpoint” value was 4.66 M. The unfolding free energy was 4.93 kcal/mol.
For Chitinase A1 V594A, P20533, the “ddG of mutation (higher = less stable)” value was 4.19 kcal/mol, the denaturant m value was 1.27 kcal/mol/M and the “denaturant midpoint” value was 2.56 M. It also gave an unfolding free energy of 2.51 kcal/mol.
For Chitinase A1 V604A, P20533, the “ddG of mutation (higher = less stable)” value was 1.58 kcal/mol, the denaturant m value was 1.1 kcal/mol/M and the “denaturant midpoint” value was 4.83 M. It also gave an unfolding free energy of 5.12 kcal/mol.
In the case of Chitinase A1 V624A, P20533, the “ddG of mutation (higher = less stable)” value is reported as 4.07 kcal/mol, the denaturant m value is reported as 1.19 kcal/mol/M and the “denaturant midpoint” value is reported as 2.67 M. For the same substance, the unfolding free energy was 2.63 kcal/mol.
In the case of Chitinase A1 V640A, P20533, the “ddG of mutation (higher = less stable)” value is reported as 1.66 kcal/mol, the denaturant m value is reported as 1.22 kcal/mol/M and the “denaturant midpoint” value is reported as 4.76 M. It also gave an unfolding free energy of 5.04 kcal/mol.
In the case of Chitinase A1 V642A, P20533, the “ddG of mutation (higher = less stable)” value is reported as 1.44 kcal/mol, the denaturant m value is reported as 1.15 kcal/mol/M and the “denaturant midpoint” value is reported as 4.95 M. The unfolding free energy was 5.26 kcal/mol.
In the case of Chitinase A1 Y592F, P20533, the “ddG of mutation (higher = less stable)” value is reported as 1.77 kcal/mol, the denaturant m value is reported as 1.25 kcal/mol/M and the “denaturant midpoint” value is reported as 4.66 M. For the same substance, the unfolding free energy was 4.93 kcal/mol.
With Chitinase A1 Y592L, P20533 the “ddG of mutation (higher = less stable)” value was 5.97 kcal/mol, the denaturant m value was 1.46 kcal/mol/M and the “denaturant midpoint” value was 1.02 M. It also gave an unfolding free energy of 0.73 kcal/mol.
With Chitinase A1 Y620F, P20533 the “ddG of mutation (higher = less stable)” value was 1.52 kcal/mol, the denaturant m value was 1.31 kcal/mol/M and the “denaturant midpoint” value was 4.88 M. The unfolding free energy was 5.18 kcal/mol.
In the case of Chitinase A1 Y620L, P20533, the “ddG of mutation (higher = less stable)” value is reported as 4.38 kcal/mol, the denaturant m value is reported as 1.26 kcal/mol/M and the “denaturant midpoint” value is reported as 2.4 M. For the same substance, the unfolding free energy was 2.32 kcal/mol.
